# Reference: the RNAGym collection of RNA variant scans (doi:10.1073/pnas.2313332121)
# B1: TPR t1 (parent)
# chain: GACCAAUCUGCCCUCAGAGCUCGAGAACAUCUUCGGAUGCAGAGGAGGCAGGCUUCGGUGGCGCGAUAGCGCCAACGUCCUCAACCUCCAAUGCAUCCCACCACAUGAUGAUGCCUGAAGAGCCUUGGUUUUUUG
# Variants of: B1
# Experiment: polymerase ribozyme fitness, log enrichment relative to wild type (log ratio); higher = more active; in vitro selection for triplet polymerase activity
# In short: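 Genotype fitness is the logarithm of its enrichment divided by wild-type enrichment, using inverse-variance-weighted averages of replicates. That logarithm is base 2. Enrichment was measured by Illumina sequencing of input and output libraries from one triplicate in vitro selection round, with frozen incubation at −7 °C, on PCR-built, transcribed mutant libraries of each subunit of a heterodimeric triplet polymerase ribozyme, retaining genotypes with ≥10 input reads and ≥1 read per output.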
row,Variant,polymerase ribozyme fitness (log ratio)
1,U55C C62U C89A U109A,-6.44
2,C56A C72U C82U C85U,-1.52
3,C56G G71U A121C,-2.41
4,C56A C72G A90G,-1.05
5,C53U C56G C101A A121C G135C,0.621
6,C53U U81C C88A,-1.58
7,C56G C82G C115G A121U,-0.801
8,U55G A100C,-0.346
9,C56A A83G A84C G135C,-0.872
10,C56A G107A,-3.75
11,U54A G57U U78A A95U G120U,-0.728
12,U54A U81A,-0.628
13,C56G C64U C123U,0.0926
14,C53G C72G G117C,-4.69
15,C53G C102A,-2.97
16,C56G G57A G61C A118G,-4.8
17,C56A C114U C115U U131C,-5.83
18,C53G U59G C94G,-0.648
19,C53U C64G C73U A90C U112G,-7.28
20,C53U C124A G128C,-0.772
21,U54A C70U G113U C114G A121C,-2.74

row,Variant,polymerase ribozyme fitness (log ratio)
1,C56A C86U,-0.995
2,C56G C62U A103U U109G,-6.92
3,U55C G71A A90G G113U,-2.42
4,U54C G61U G71U C82U A83U C114U,-5.85
5,C56A G57U U78C G113C,-3.22
6,C56A U92G,-2.6
7,C56A U92A,-3.75
8,C56A C70U U92G,-4.08
9,C56A G128C,-2.8
10,C53U C72G G113C U129A,-4.76
11,U54G G71U C79A,-5.67
12,U54A G61A C124A G128U,-0.356
13,C53U C86G C89G C97U C124U,-1.92
14,U54A U92G,-2.06
15,C53G G60U G65U C104U,-7.04
16,C53G G61U G77U C101G G120C,-3.46
17,C56G A74U,-0.327
18,U54C C70U,-0.253
19,C56A C80A,-2.22
20,U55C G61A C104A,-1.51
21,C56A C76G,0.138

row,Variant,polymerase ribozyme fitness (log ratio)
1,U55G A74U U81A C85G G122A,-4.4
2,C56G C88U C94A G110U,-4.78
3,C53U C89U,-0.632
4,C53G C62U C72A C124U,0.806
5,C53U C123U,1.1
6,C56A G63U G77C C115G,-4.37
7,U55C G57U A66C C123G U132A,0.759
8,U55G U78A,-0.34
9,C53U G113C,-1.77
10,C53G G71C C72U,-0.79
11,U54A C64U A95C,-0.888
12,C56A G57C,0.379
13,C56G G110A U116G,-3.62
14,C56A U106A,-0.695
15,C53U C72G C88U A105G,-2.32
16,C56A G69U C73U C124A,1.14
17,U54G G93A A111U,-3.35
18,C53U U59A C89A U130G,-3.42
19,C53U G69A,-2.64
20,C56A C115U U130A,-1.24
21,C53U C79A C85U C88U,-2.08

row,Variant,polymerase ribozyme fitness (log ratio)
1,U54G C62A U78C C123U U126A,-6.39
2,U54G A95U,-0.988
3,U54G C82A,-0.235
4,U54A C72U C97U,-1.24
5,U55C G71C C104U,-0.984
6,C56G G77C U130G,-0.115
7,U54C G69U G127C,-0.892
8,U55A C101G,-1.85
9,U54G C86A U129G,-0.985
10,C53G G135U,-1.51
11,U54G C102U,-1.84
12,U55C C62G G128U,-4.02
13,C56A U96G G113A,-1.95
14,C56G C114G,-3.74
15,C56A C88G A118U,-1.12
16,U54A A119G G135U,0.414
17,C56G G69U,-0.682
18,C56A G71A C86A C104A,-6.75
19,U54G C80U U133A,-0.863
20,C56A C79G G93A,-2.59
